Test results from publication PMC5976436, “Structure of a TRPM2 channel in complex with Ca^2+ explains unique gating regulation” (eLife, 2018).

Molecular target: the molecule itself
Assay: cryo-EM structure; purified nvTRPM2 in Buffer A (20 mM Tris-HCl pH 8.0, 150 mM NaCl, 0.06% digitonin, 1 mM DTT), 5 mg/ml, trace amounts of Ca2+, no ADPR; C4 symmetry

B1: Nematostella vectensis TRPM2 channel (transient receptor potential melastatin 2) (natural protein, UniProt A7T1N0 1-1551, looked up)
chain: MGKDSFTPLYDGGDSSHVHLNKFGSNQLSQSKKSWIARNFSRRECIRFVPKSHDVSRCKCGRPRERHSQQALESGQGSEEWNVASCTTKHPTNAYGEIDFEGYGGQKRAPYLRMSHDTDANLVITLMLKRWNLEIPNLVISVTGGAKSFVLKPRLREMFRRGLIKAAKTTGAWIITGGTNTGVMKHVGEAVKEQQLMFGSDTQVNVIGIATWGIVDKQSDLISEKNGKYPALYSMEPTPGHQGAMLDPNHSHFFLVDDGTEGKYGVEIGMRSRIEEAIMKVKTDSRSEAGSIGVPVVLLVLEGGPNTVATMYELIKKKVPAVVIDGSGRAASVVGFAYNHTIKRNVDGQTINVIDPQYEDEVRAKVVEVFGAKGADKTYSMIKDVLEDEKMISVYSLDGEISQDIDLAILKALLKANRSSPVAQLNLALAWNRIDLAKSDIFTEEQQWTTETLSAAMLTALLDDKAEFAELFLQNGLSMREFLSLDILCKLYAEVPGNTTIKPLLQKEMGKRQVKTIDMDVVGEVIEELMGDMFESYYRKDGHYFGELASYAEGLVLKNRKSSKDLLANINRIDPLPTPYLDVFLWAVLCNRRELARVLWEAGREPMAAALMASRLLKRMASRAQEDNTITDISSDLYDHARLFEERAVGVLDECFNENETLSQTLLVRELDHYSRMTALELAVSAESQDFIAHTSCQVLLTRLWMGTMAMNTRWWKVLVCLYLPVLIFPIIYFVPDEQHERQAAEREHQKSLNQKSSKVKSHKEKNDAPVVPVYRSKEEKAVSNDEEARVGTENEEEDFQLEDYIPEIREDDSMEVIMRNKKLGFCDRIMHFYSAPFSKFVGNVVGYLAFIFLYAYVVLFNFPRFDPAKTLGGIHPTEIVLYFWVFTILIEEIRQLAAKPPKYIKDKVSVYFSDTWNFVDIFSLTVFIIAIILRFFTNSRIFTASRIILSLDIIFFIVRSLQIFSVNRLLGPKLVMIQKMMQDLAQFIIILAVFTIAYGIALHAVMFPSPGIYARNNTWVTITSVVQYPYWQMYGELFLDEIQGEKPKEFGEVDPDGRWLSPLLLAIYMVFTNILLLNLLIAIFNYTFERVQEDSDKVWKFQRYDLVQEYHSRPVFAPPLVLLGHILIFIRWVWRMCRCGHPPRGSTMKIGLSPAEMEQMDNWEFQAAEMYIHQQQQKNSGTLEERVRALGDRVDCINSQLNRVLDSMSGTRAHALTDGNGLEGGHDSEGRLARMEVELSSNSESLQKILALLQQQPPVKGQAAVPIQLTLLHYKARSSPYPGSTAKRFAVQDNMVDWQVPFPDYKPVNYTAPVVLANPVWADKDLMAMSPRPELPYNQMDHTCNVNRVSYNGTYVVKDGLPLNPMGRTGMQGRGLLGRFGPNHAADPVVTRWKRTSAGVMLQGGKKVLEFVAIQRKDNNQWAIPGGMVEPGQLVTQALKAEFGEEAMAKLNVSQEEKERIAKQIERLFQQGQEIYKGYVDDPRNTDNAWMETVAVNFHDDKGDLFGDITLQAGDDAAAVRWQRVSGNIPLYASHVSILEKVAKMRDAAF
modifications: two N-acetylglucosamines attached to N1017
notes: TRPM2 of Nematostella vectensis, full-length protein; synthesized gene; the C-terminal NUDT9H domain is residues 1271-1551; model holds residues 6-23, 41-51, 86-546, 573-755, 812-1136 and 1148-1210; the NUDT9H domain is present in the protein but not seen in the map; also called nvTRPM2; not shown: GFP, C-terminal, cleaved
stoichiometry N: 4
